This note sets out measurements from patent US20090220532A1 (PROYECTO DE BIOMEDICINA CIMA S L, published 2009).

The target of the test is human TLR4 (Toll-like receptor 4) on HEK293 cells expressing human TLR4-MD2-CD14 (human, UniProt O00206 24-839). As to the kind of experiment: cell-based or functional assay.
Chain of human TLR4 (Toll-like receptor 4) on HEK293 cells expressing human TLR4-MD2-CD14 (O00206 24-839): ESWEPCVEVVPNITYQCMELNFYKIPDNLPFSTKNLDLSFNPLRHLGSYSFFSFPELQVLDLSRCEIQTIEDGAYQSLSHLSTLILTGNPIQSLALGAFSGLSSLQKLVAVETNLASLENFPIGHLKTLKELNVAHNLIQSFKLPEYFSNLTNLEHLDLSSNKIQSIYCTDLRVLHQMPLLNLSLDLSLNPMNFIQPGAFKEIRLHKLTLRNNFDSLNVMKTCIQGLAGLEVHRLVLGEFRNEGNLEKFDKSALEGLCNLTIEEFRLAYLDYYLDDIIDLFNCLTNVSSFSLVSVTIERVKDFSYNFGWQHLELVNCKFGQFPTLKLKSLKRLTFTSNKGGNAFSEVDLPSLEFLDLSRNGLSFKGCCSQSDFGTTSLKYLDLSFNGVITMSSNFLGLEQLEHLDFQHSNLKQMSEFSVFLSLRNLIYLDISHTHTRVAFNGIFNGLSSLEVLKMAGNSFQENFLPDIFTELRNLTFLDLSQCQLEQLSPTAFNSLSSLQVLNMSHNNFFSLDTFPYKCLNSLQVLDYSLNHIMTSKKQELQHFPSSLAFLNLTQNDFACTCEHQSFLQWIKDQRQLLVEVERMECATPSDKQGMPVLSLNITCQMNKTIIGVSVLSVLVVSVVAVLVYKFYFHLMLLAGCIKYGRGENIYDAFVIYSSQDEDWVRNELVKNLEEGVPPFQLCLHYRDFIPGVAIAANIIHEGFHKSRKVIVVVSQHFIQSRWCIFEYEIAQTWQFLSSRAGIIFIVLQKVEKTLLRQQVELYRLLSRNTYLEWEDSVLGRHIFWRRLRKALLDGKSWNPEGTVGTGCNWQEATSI

B1: EDA-SIINFEKL-6xHis fusion protein (recombinant proteinaceous vector) (ligand)
chain: MNIDRPKGLAFTDVDVDSIKIAWESPQGQVSRYRVTYSSPEDGIRELFPAPDGEDDTAELQGLRPGSEYTVSVVALHDDMESQPLIGIQSTQLESIINFEKLTEWAAALEHHHHHH
As for B1, the “fold NF-κB induction factor (SEAP reporter under NF-κB-inducible ELAM-1 promoter; OD of HEK293/TLR4-MD2-CD14 supernatants divided by OD of HEK293/LacZ supernatants), 100 nM EDA-SIINFEKL” value came to 7 fold.
